The values below come from US20090181444A1, “MODIFIED CARBOHYDRATE PROCESSING ENZYME” (priority 2002, published 2009).

Data set [1] in a line: Kinetic assay with p-nitrophenyl β-D-galactopyranoside, absorbance at 405 nm. The class given is biochemical. The settings on record: pNPGal, 45° C., pH 6.5 phosphate buffer, averaged over 3 runs, except * 2 runs. The procedure:
(§1) The kinetic activity of SsδG was assessed using ultra-violet/visible spectroscopy. Cleavage of the glycosidic bond of the nitrophenyl sugar analogue releases a chromophore (Scheme 18), either p-nitrophenol or o-nitrophenol.
(§2) The absorbance of these chromophores at 405 nm was continuously measured at regular time intervals, and the Beer-Lambert Law used to calculate the chromophore concentration at each of these time intervals.
(§3) In order to use this equation the extinction coefficient, ∈, of both p-nitrophenol and o-nitrophenol were calculated. Enzyme kinetic parameters were assessed using the initial rates method. The gradient of a plot of chromophore concentration against time gave the initial rate of reaction at a series of substrate concentrations (0.05-10 mM). Kinetic parameters were calculated by regression analysis of the kinetic data on the Michaelis-Menten Model (Fersht, A., Enzyme Structure and Mechanism, W.H. Freeman and Company, New York (1985)). The initial rate of reaction was measured. This model is valid when [substrate]>>[enzyme], which are initial rate conditions.
(§4) KM and νmax were calculated from non-linear Michaelis-Menten and linear Lineweaver-Burk plots. From these values, kcat and kcat/KM were calculated and compared.
KM=νmax/2, it is the concentration of substrate at which half the active sites are filled. Higher KM values correspond to weaker binding and lower KM values correspond to stronger binding kcat, the turnover number is the number of substrate molecules which are converted to product when the enzyme is saturated with substrate and ν (rate) is maximised. Given both of these considerations, binding and rate, kcat/KM is typically as a measure of the overall relative activity of the enzyme. To allow comparison of the activity of the enzymes, ln({kcat/KM}mutant/{kcat/KM}WT) was calculated for each enzyme-substrate combination, to give overall activity relative to WT.
Substrate solutions (concentration 10 mM in 50 mM pH 6.5 phosphate buffer) were prepared. Kinetic assays were conducted in a 96-well flat bottom microtitre plate. Eight substrate concentrations were chosen for the assay from the range 0.05 mM to 10 mM (prepared from 10 mM stock solution), based on previous experimental experience of the kinetics of each enzyme (default range 0.05 mM to 2.00 mM)*. The enzyme stock solution (˜1 mgmL^−1) was diluted between 16- and 80-fold depending on the kinetic parameters determined*. The enzyme solution (496 µL) was dispensed into a 1.5 mL sealed Eppendorf tube. Into eight further Eppendorf tubes a portion of each substrate solution (650 μL) was dispensed. The tubes were incubated in a Techni Dri Block at 45° C. Simultaneously a 96-well flat bottom microtitre plate was incubated at 45° C. in a plate reader. […] The plate containing the enzyme and substrate solutions was then incubated in the plate reader at 45° C. to allow equilibration. […] Release of p-nitrophenol/o-nitropbenol was measured by absorbance at […], with an automix of 3 s before the first read and Is between every subsequent read. The run time chosen was between 6 min and 10 min*, and readings were taken at intervals of between 6 s and 10 s*.
(§5) A graph of concentration of the released chromophore (either pNP or oNP) against time was drawn for each concentration using Microsoft Excel. […] These gradients were entered into Grafit, which calculated KM and νmax from the Michelis-Menten and Lineweaver-Burk plots. From these kcat and kcat/KM could be calculated. […]

A short description of data set [2]: Kinetic assay with o-nitrophenyl β-D-galactopyranoside-6-phosphate, absorbance at 405 nm. The format is biochemical. The following applies: oNPGalP6, 45° C., pH 6.5 phosphate buffer; averaged over 3 runs, except * 2 runs. The procedure: as §1, §2, §3, §4
KM=νmax/2, it is the concentration of substrate at which half the active sites are filled. Higher KM values correspond to weaker binding and lower KM values correspond to stronger binding kcat, the turnover number is the number of substrate molecules which are converted to product when the enzyme is saturated with substrate and ν (rate) is maximised. […] To allow comparison of the activity of the enzymes, ln({kcat/KM}mutant/{kcat/KM}WT) was calculated for each enzyme-substrate combination, to give overall activity relative to WT.
Substrate solutions (concentration 10 mM in 50 mM pH 6.5 phosphate buffer) were prepared. […] The enzyme stock solution (˜1 mgmL^−1) was diluted between 16- and 80-fold depending on the kinetic parameters determined*. […] Simultaneously a 96-well flat bottom microtitre plate was incubated at 45° C. in a plate reader. […] The plate containing the enzyme and substrate solutions was then incubated in the plate reader at 45° C. to allow equilibration. […] Release of p-nitrophenol/o-nitropbenol was measured by absorbance at […], with an automix of 3 s before the first read and Is between every subsequent read. The run time chosen was between 6 min and 10 min*, and readings were taken at intervals of between 6 s and 10 s*.
as §5

Structures can show the parent of a compound that is named as a salt.

A word on the melting point: it is the temperature, or range, at which the solid turns liquid. In general, kcat refers to the maximal rate divided by the concentration of active sites. Broadly, the Km is the substrate concentration at which the rate is half of its maximum.

For `O=[N+]([O-])c1ccccc1O[C@@H]1O[C@H](COP(=O)(O)O)[C@H](O)[C@H](O)[C@H]1O` (as salt: ammonium) [Enzyme 17, o-nitrophenyl β-D-galactopyranoside 6-phosphate], the melting point was in the range of 181 to 183.1 °C.
As for `CS(=O)(=S)OCCC(=O)O` (stereo not drawn) [Enzyme 16, 2-carboxyethyl methanethiosulfonate], the melting point lay within 44 to 46 °C.

B1: C344S: SsβG mutant C344S, side chain at position 439 —CH2CH2SCH3 (protein)
chain: MYSFPNSFRFGWSQAGFQSEMGTPGSEDPNTDWYKWVHDPENMAAGLVSGDLPENGPGYWGNYKTFHDNAQKMGLKIARLNVEWSRIFPNPLPRPQNFDESKQDVTEVEINENELKRLDEYANKDALNHYREIFKDLKSRGLYFILNMYHWPLPLWLHDPIRVRRGDFTGPSGWLSTRTVYEFARFSAYIAWKFDDLVDEYSTMNEPNVVGGLGYVGVKSGFPPGYLSFELSRRHMYNIIQAHARAYDGIKSVSKKPVGIIYANSSFQPLTDKDMEAVEMAENDNRWWFFDAIIRGEITRGNEKIVRDDLKGRLDWIGVNYYTRTVVKRTEKGYVSLGGYGHGSERNSVSLAGLPTSDFGWEFFPEGLYDVLTKYWNRYHLYMYVTENGIADDADYQRPYYLVSHVYQVHRAINSGADVRGYLHWSLADNYEWASGFSMRFGLLKVDYNTKRLYWRPSALVYREIATNGAITDEIEHLNSVPPVKPLRH
Turning to B1, the catalytic constant (kcat) stood at 4.16 s⁻¹ in data set [1] and 8.42 s⁻¹ in data set [2]. For the same molecule, the Km was found to be 475 µM in data set [1] (read-out: KM) and 3590 µM in data set [2].
